Data reported in patent publication US20260263594A1.
Values joined by “and” are separate entries in the source; they are usually repeats but may differ in a detail not shown here. Equal values may be shown once.

How the values were obtained:
[1] = target: Holo-transferrin (Homo sapiens (Human)) (UniProt P02787); assay: SPR, Biacore T200, multi-cycle, Tbp-B at 6.17-500 nM; Run-1
[2] = target: Holo-transferrin (Homo sapiens (Human)) (UniProt P02787); assay: SPR, Biacore T200, multi-cycle, Tbp-B at 6.17-500 nM; Run-3
[3] = target: Holo-transferrin (Homo sapiens (Human)) (UniProt P02787); assay: SPR, Biacore T200, multi-cycle, Tbp-B at 6.17-500 nM; Run-2
[4] = target: Holo-transferrin (Homo sapiens (Human)) (UniProt P02787); assay: SPR, Biacore T200, multi-cycle, Tbp-B at 6.17-500 nM; average of 3 runs

Sequence of UniProt P02787 (P02787 20-698 limits assumed, form in doubt): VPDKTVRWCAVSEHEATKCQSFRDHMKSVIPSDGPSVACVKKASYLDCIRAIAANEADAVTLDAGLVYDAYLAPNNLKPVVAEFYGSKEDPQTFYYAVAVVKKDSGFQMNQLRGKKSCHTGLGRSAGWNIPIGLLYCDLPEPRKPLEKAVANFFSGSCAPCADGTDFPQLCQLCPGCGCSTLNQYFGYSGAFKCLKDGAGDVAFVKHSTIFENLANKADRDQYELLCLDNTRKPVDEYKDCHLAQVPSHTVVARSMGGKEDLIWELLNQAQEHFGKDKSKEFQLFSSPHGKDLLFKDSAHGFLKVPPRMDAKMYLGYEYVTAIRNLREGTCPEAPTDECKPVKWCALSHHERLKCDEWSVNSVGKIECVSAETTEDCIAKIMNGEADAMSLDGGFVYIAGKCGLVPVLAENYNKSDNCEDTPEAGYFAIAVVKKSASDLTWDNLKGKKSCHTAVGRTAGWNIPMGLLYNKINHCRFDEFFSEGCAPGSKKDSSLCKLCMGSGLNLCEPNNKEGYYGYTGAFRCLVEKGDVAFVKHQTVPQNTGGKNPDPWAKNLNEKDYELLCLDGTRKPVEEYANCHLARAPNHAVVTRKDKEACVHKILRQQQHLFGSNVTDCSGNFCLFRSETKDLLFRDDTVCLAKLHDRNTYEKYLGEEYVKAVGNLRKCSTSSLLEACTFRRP

“recombinant transferrin binding protein B (r-Tbp-B) from Neisseria meningitidis serogroup C / serotype 2a (strain FAM18) (receptor)” was tested, and the Kd [1] was 7.55 nM and 16.3 nM and 18.3 nM, the koff [1] was 0.0187 s⁻¹ and 0.0081 s⁻¹ and 0.0083 s⁻¹ and the Kd [2] was 8.1 nM and 19 nM and 22 nM. For the same substance, the koff [2] was 0.02 s⁻¹ and 0.009 s⁻¹, the Kd [3] was 8.1 nM and 21 nM and 19 nM and the koff [3] was 0.019 s⁻¹ and 0.009 s⁻¹. The Kd [4] was 7.92 nM and 18.6 nM and 19.5 nM and the koff [4] was 0.019 s⁻¹ and 0.009 s⁻¹.
